From PMC3828642, “1-Aminocyclopropane-1-carboxylic acid oxidase reaction mechanism and putative post-translational activities of the ACCO protein” (AoB Plants, 2013)
Several values for one entry are separate records, joined by “and”; a condition that tells them apart may be missing. Equal values may be shown once.

Target: 1-Aminocyclopropane-1-carboxylic acid (ACC) oxidase ACCO1 from apple (Malus domestica), His-Tag fusion protein (apple (Malus domestica))
Assay: SEC; Sephadex G-200 column chromatography; activity of the monomer, dimer and tetramer forms; data not shown

Substance: 1-Aminocyclopropane-1-carboxylic acid (ACC) oxidase ACCO1 from apple (Malus domestica), His-Tag fusion protein (enzyme)
- stoichiometry N: 2 and 4
